According to patent US11648290B2, “Cartilage-homing peptides” (FRED HUTCHINSON CANCER CENTER, priority 2015, dated 2023):

Columns and labels:
[1] = system: cartilage; details: for Cartilage (C): percentage of signal in the cartilage compared to the blood signal in the heart ventricle / Muscle (M): signal compared to the level in the blood: 3 hours after administration, ligated kidneys, 14C-labelled peptide, tail vein
Method: This example describes a dosing scheme for administering knottin peptides to mice in conjunction with kidney ligation. Different dosages of the peptides were administered to Female Harlan athymic nude mice, weighing 20 g-25 g, via tail vein injection (n=2 mice per knottin). The experiment was done in duplicates. The kidneys were ligated to prevent renal filtration of the peptides. Each peptide was radiolabeled by methylating lysines and the N-terminus, so the actual binding agent may contain methyl or dimethyl lysine(s) and a methylated or dimethylated amino terminus.
A target dosage of 50-100 nmol of each peptide carrying 10-25 uCi of ^14C was administered to Female Harlan athymic nude mice while anesthetized. Each peptide was allowed to freely circulate within the animal before the animals were euthanized and sectioned.
This example illustrates peptide homing to cartilage of mice with kidneys that were ligated prior to peptide administration. At the end of the dosing period in EXAMPLE 3, mice were frozen in a hexane/dry ice bath and then frozen in a block of carboxymethylcellulose. […] Thin, frozen sections of animal including imaging of tissues such as brain, tumor, liver, kidney, lung, heart, spleen, pancreas, muscle, adipose, gall bladder, upper gastrointestinal tract, lower gastrointestinal tract, bone, bone marrow, reproductive track, eye, cartilage, stomach, skin, spinal cord, bladder, salivary gland, and other types of tissues were obtained with a microtome, allowed to desiccate in a freezer, and exposed to phosphoimager plates for about ten days.
These plates were developed, and the signal (densitometry) from each organ was normalized to the signal found in the heart blood of each animal. A signal in tissue darker than the signal expected from blood in that tissue indicates peptide accumulation in a region, tissue, structure or cell. For instance, the cartilage is avascular and contains minute amounts of blood. A ratio of at least 170% signal in the cartilage versus heart ventricle was chosen as a reference level for significant targeting to cartilage, which also correlated with clear accumulation in cartilaginous tissues in the images of the slices.
The SEQ ID NO: 24 peptide was radiolabeled as in Example 3 and 100 nmol of peptide was injected into a mouse with intact kidneys. FIG. 5 illustrates the retention of and the tissue distribution in the cartilage of a peptide of SEQ ID NO: 24, 24 hours after administration.

[2] = Temperature stability of peptides (RP-HPLC); format: physicochemical
Method: This example illustrates peptide stability at high temperatures. Peptides were first suspended in 500 μl of ddH2O to a stock concentration of 2 mg/ml. Reactions were prepared by adding 6.25 μl of peptide from the stock solution with 95 μl ddH2O and incubated at room temperature, 70° C., or 100° C. for one hour in a Thermocycler. RP-HPLC was then run on samples using an Agilent 1260 HPLC equipped with a C-18 Poroshell 120B column. Sample were analyzed by a gradient method with a mobile phase of Solvent A (water with 0.1% TFA) and Solvent B (acetonitrile with 0.1% TFA). Solvent B was ramped up from 5%-45% of the mobile phase over a period of 10 minutes.
Peptides of SEQ ID NO: 28 and SEQ ID NO: 483 were analyzed by HPLC after incubation at room temperature (25° C.), 70° C., or 100° C. for one hour.

[3] = system: cartilage; experiment: Cartilage homing, no method given; details: in vivo
[4] = system: cartilage (IVD, knee / synovial joints); experiment: Whole body autoradiography (WBA) of radiolabeled cartilage homing peptides (Example 21); format: in vivo, Female Harlan athymic nude mice; details: for Signal in the intervertebral disc (IVD), Average: percentage of blood
Method: This example illustrates peptide homing to cartilage mice 5 minutes to 48 hours after administration of a radiolabeled peptide. Signal from the radiolabeled peptides was found in all types of cartilage at each time point examined. Each peptide was radiolabeled by methylating […] as described in EXAMPLE 2. As such, the peptide may contain methyl or dimethyl lysines and a methylated or dimethylated amino terminus. A dose of 100 nmol radiolabeled peptide was administered via tail vein injection in Female Harlan athymic nude mice, weighing 20-25 g. The experiment was done in duplicate (n=2 animals per group). In some animals, kidneys were ligated to prevent renal filtration of the radiolabeled peptides and extend plasma half-life. Each radiolabeled peptide was allowed to freely circulate within the animal for the described time period before the animals were euthanized and sectioned.
Whole body autoradiography (WBA) sagittal sectioning was performed as follows. […] Sections were allowed to desiccate in a freezer prior to imaging.
For the autoradiography imaging, tape mounted thin sections were freeze dried and radioactive samples were exposed to phophoimager plates for 7 days.

[5] = Peptide resistance to reducing agents (10 mM DTT, RP-HPLC); format: physicochemical; details: 10 mM DTT in PBS, room temperature, 30 minutes
Method: Several peptides were suspended in 500 μl of ddH2O to a stock concentration of 2 mg/ml. Reactions were prepared by adding 12.5 μg peptide from the stock solution to a 10 mM solution of DTT in PBS and allowed to incubate at room temperature for 30 minutes. RP-HPLC was run on samples using an Agilent 1260 HPLC equipped with a C-18 Poroshell 120B column. Samples were analyzed by a gradient method with a mobile phase of Solvent A (water with 0.1% TFA) and Solvent B (acetonitrile with 0.1% TFA). Solvent B was ramped up from 5%-45% of the mobile phase over a period of 10 minutes.
Peptides were fractionated by HPLC and without any further sample prep, 5 μl of the sample was injected into the mass spectrometer at 1 mg/ml using a CTCPAL® autosampler. Alternatively, if peptides were provided as a lyophilized powder, the sample was dissolved in 100% water to a concentration of 1 mg/ml a Millipore Ziptip C18® column was used to desalt the peptides prior to injection for ES-MS. The mass spectrometer was calibrated using 5 pmol of mixture of five standard peptides to achieve a high accuracy of mass determination with less than a 10 ppm error. Confirmation of peptide disulfide bond formation was achieved by analyzing the m/z isotopic distribution and the exact charge. All peptides tested are shown under reducing and non-reducing conditions.

[6] = 3 hr after 100 nmol radiolabeled peptide
[7] = 24 hr after 100 nmol radiolabeled peptide

Substance | Cartilage (C): percentage of signal in the cartilage compared to the blood signal in the heart ventricle [1] | Muscle (M): signal compared to the level in the blood [1] | other results
21 (GSGIVCKVCKIICGMQGKKVNICKAPIKCKCKKG) [compound 21] | 270% | 36% | 
22 (GSSEKDCIKHLQRCRENKDCCSKKCSRRGTNPEKRCR) [compound 22] | 337% | 27% | 
23 (GSVRIPVSCKHSGQCLKPCKDAGMRFGKCMNGKCDCTPK) [compound 23] | 497% | 26% | 
24 (GSGVPINVKCRGSRDCLDPCKKAGMRFGKCINSKCHCTP) [compound 24] | 624% | 34% | 
25 (GSAVCVYRTCDKDCKRRGYRSGKCINNACKCYPYG) [compound 25] | 358% | 24% | 
26 (GSISCTGSKQCYDPCKRKTGCPNAKCMNKSCKCYGCG) [compound 26] | 413% | 38% | 
27 (GSQVQTNVKCQGGSCASVCRREIGVAAGKCINGKCVCYRN) [compound 27] | 448% | 31% | 
28 (GSEVIRCSGSKQCYGPCKQQTGCTNSKCMNKVCKCYGCG) [compound 28] | 361% | 17% | 
29 (GSACKGVFDACTPGKNECCPNRVCSDKHKWCKWKL) [compound 29] | 243% | 26% | 
30 (GSQIYTSKECNGSSECYSHCEGITGKRSGKCINKKCYCYR) [compound 30] | 221% | 26% | 
31 (GSGCLEFWWKCNPNDDKCCRPKLKCSKLFKLCNFSFG) [compound 31] | 306% | 68% | 
33 (GSGCFGYKCDYYKGCCSGYVCSPTWKWCVRPGPGR) [compound 33] | 179% | 28% | 
196 (GSQKILSNRCNNSSECIPHCIRIFGTRAAKCINRKCYCYP) [compound 196] | 291% | 30% | 
198 (GSAVCNLKRCQLSCRSLGLLGKCIGDKCECVKHG) [compound 198] | 276% | 26% | 
433 (GSKCLPPGKPCYGATQKIPCCGVCSHNNCT) [compound 433] | 156% | 20% | 
483 (GSISIGIKCSPSIDLCEGQCRIRKYFTGYCSGDTCHCSG) [compound 483] | 67% | 24% | 
485 (METDTLLLWVLLLWVPGSTG) [compound 485] | 92% | 21% | 
GSEVIRCSGSKQCYGPCKQQTGCTNSKCMNKVCKCYGCG [SEQ ID NO: 28] |  |  | Stability after heat incubation (HPLC) ([2]; 70 C for 1 hour): resistant to heat-induced degradation; Stability after heat incubation (HPLC) ([2]; 100 C for 1 hour): underwent various degrees of degradation
GSGDCLPHLKRCKENNDCCSKKCKRRGANPEKRCR [SEQ ID NO: 205] |  |  | Cartilage homing [3]: home to cartilage
GSGDCLPHLRRCRENNDCCSRRCRRRGANPERRCR [SEQ ID NO: 200] |  |  | Cartilage homing (qualitative, WBA) ([4]; 100 nmol radiolabeled peptide): showed signal in cartilage and exhibited cartilage homing properties; Change of signal in IVD and joint cartilage between 3 and 24 hours ([4]; 100 nmol radiolabeled peptide): maintained or increased; Signal in the intervertebral disc (IVD), Average [4, 6]: 1809%; Signal in synovial joints as a percentage of signal in blood, Average [4, 7]: 4991%; Signal in the intervertebral disc (IVD), Average [4, 7]: 3542%
GSKCLPPGKPCYGATQKIPCCGVCSHNNCT [SEQ ID NO: 433, reference compound] |  |  | Homing to cartilage (autoradiography, FIG. 11) ([1]; 24 hours after administration of 100 nmol): did not home to cartilage and was seen in the bone marrow
GSQKILSNRCNNSSECIPHCIRIFGTRAAKCINRKCYCYP [SEQ ID NO: 196] |  |  | HPLC peaks under non-reducing versus reducing conditions (resistance to reduction by DTT) [5]: Peaks showing the peptide under non-reducing conditions and reducing conditions are overlapping
GSQVQTNVRCQGGSCASVCRREIGVAAGRCINGRCVCYRN [SEQ ID NO: 114] |  |  | Cartilage homing (qualitative, WBA) ([4]; 100 nmol radiolabeled peptide): showed signal in cartilage and exhibited cartilage homing properties; Change of signal in IVD and joint cartilage between 3 and 24 hours ([4]; 100 nmol radiolabeled peptide): reduced residence time with a signal near the limit of detection by 24 hours; Signal in synovial joints as a percentage of signal in blood, Average [4, 6]: 1175%; Signal in the intervertebral disc (IVD), Average [4, 6]: 1075%; Signal in the intervertebral disc (IVD), Average [4, 7]: 191%
GSSEKDCIKHLQRCRENKDCCSKKCSRRGTNPEKRCR [SEQ ID NO: 22] |  |  | Cartilage homing [3]: home to cartilage
GSSERDCIRHLQRCRENRDCCSRRCSRRGTNPERRCR [SEQ ID NO: 109] |  |  | Cartilage homing (qualitative, WBA) ([4]; 100 nmol radiolabeled peptide): showed signal in cartilage and exhibited cartilage homing properties; Change of signal in IVD and joint cartilage between 3 and 24 hours ([4]; 100 nmol radiolabeled peptide): maintained or increased; Rank of signal in cartilage among SEQ ID NO: 109, 200, 110, 114 ([4]; 100 nmol radiolabeled peptide): highest signal in cartilage; Signal in synovial joints as a percentage of signal in blood, Average [4, 6]: 5627%; Signal in the intervertebral disc (IVD), Average [4, 6]: 2758%; Signal in synovial joints as a percentage of signal in blood, Average [4, 7]: 5097%; Signal in the intervertebral disc (IVD), Average [4, 7]: 4367%
GSVRIPVSCRHSGQCLRPCRDAGIVIRFGRCMNGRCDCTPR [SEQ ID NO: 110] |  |  | Cartilage homing (qualitative, WBA) ([4]; 100 nmol radiolabeled peptide): showed signal in cartilage and exhibited cartilage homing properties; Change of signal in IVD and joint cartilage between 3 and 24 hours ([4]; 100 nmol radiolabeled peptide): decreased; Signal in synovial joints as a percentage of signal in blood, Average [4, 6]: 3142%; Signal in the intervertebral disc (IVD), Average [4, 6]: 2374%; Signal in synovial joints as a percentage of signal in blood, Average [4, 7]: 981%; Signal in the intervertebral disc (IVD), Average [4, 7]: 1327%
VFINVKCRGSPECLPKCKEAIGKSAGKCMNGKCKCYP [SEQ ID NO: 422] |  |  | Cartilage homing [3]: homes to cartilage
